Results as given in paper doi:10.1101/2021.07.15.452465.

What was measured:
[1] = target: A. nidulans CCAAT-binding complex, conserved core domains of HapB, HapC and HapE (HapB^231-293, HapC^42-132, HapE^47-164) (Aspergillus nidulans); assay: crystal structure
[2] = target: A. nidulans HapX^36-133M carrying C92K and C129S point mutations (Aspergillus nidulans); assay: crystal structure
[3] = target: A. nidulans CCAAT-binding complex, conserved core domains of HapB, HapC and HapE (HapB^231-293, HapC^42-132, HapE^47-164) (Aspergillus nidulans); assay: SEC
[4] = target: A. nidulans CCAAT-binding complex, conserved core domains of HapB, HapC and HapE (HapB^231-293, HapC^42-132, HapE^47-164) (Aspergillus nidulans); assay: SPR

Row | fold increase of binding against HapX^36-133 [4] | Substance | stoichiometry N (HapX subunits per CBC) [1] | stoichiometry N [2] | stoichiometry N [3]
1 |  | A. nidulans HapX^36-133M carrying C92K and C129S point mutations (domain or fragment) | 2 | 2 | 2 HapX per CBC
2 | < 3.6 fold | A. nidulans HapX^36-141 (domain or fragment) |  |  | 
